This is an account of results in PMC6322573, “Profiling of advanced glycation end products uncovers abiotic stress-specific target proteins in Arabidopsis” (Journal of Experimental Botany, 2018).

As usually defined, the kcat is the number of substrate molecules converted per active site and unit of time at saturation. What is called kcat/Km is the turnover number divided by the Michaelis constant.

Substrate in data set [1]: O=CC(O)COP(=O)(O)O
The experiment in a line: purified protein. Format: biochemical, Arabidopsis thaliana. Particulars: non-glycated enzyme, 0.1 mM NADH, alpha-glycerophosphate dehydrogenase 5 U, 10 mM sodium phosphate pH 7.0, 100 mM NaCl, 25 °C.

Substrate in data set [2]: O=CC(O)COP(=O)(O)O
Briefly: purified protein. Particulars: non-glycated enzyme, 10 mM NAD+, 3 mM DTT, 10 mM sodium phosphate pH 8.5, 100 mM NaCl, 25 °C.

B1: TPI (chloroplastic triosephosphate isomerase) (Arabidopsis thaliana) (protein)
chain: MAGSGKFFVGGNWKCNGTKDSIAKLISDLNSATLEADVDVVVSPPFVYIDQVKSSLTDRIDISGQNSWVGKGGAFTGEISVEQLKDLGCKWVILGHSERRHVIGEKDEFIGKKAAYALSEGLGVIACIGEKLEEREAGKTFDVCFAQLKAFADAVPSWDNIVVAYEPVWAIGTGKVASPQQAQEVHVAVRGWLKKNVSEEVASKTRIIYGGSVNGGNSAELAKEEDIDGFLVGGASLKGPEFATIVNSVTSKKVAA
notes: measured mass 29273 Da; homodimer
B1: in data set [1], the Km was 1.21 (±0.39) mM, the kcat was found to be 18.4 ± 2.25 s⁻¹ and the specificity constant (kcat/Km) stood at 15000 M⁻¹ s⁻¹.

B2: GAPC1 (cytosolic glyceraldehyde-3-phosphate dehydrogenase C1) (Arabidopsis thaliana) (protein)
chain: MADKKIRIGINGFGRIGRLVARVVLQRDDVELVAVNDPFITTEYMTYMFKYDSVHGQWKHNELKIKDEKTLLFGEKPVTVFGIRNPEDIPWAEAGADYVVESTGVFTDKDKAAAHLKGGAKKVVISAPSKDAPMFVVGVNEHEYKSDLDIVSNASCTTNCLAPLAKVINDRFGIVEGLMTTVHSITATQKTVDGPSMKDWRGGRAASFNIIPSSTGAAKAVGKVLPALNGKLTGMSFRVPTVDVSVVDLTVRLEKAATYDEIKKAIKEESEGKLKGILGYTEDDVVSTDFVGDNRSSIFDAKAGIALSDKFVKLVSWYDNEWGYSSRVVDLIVHMSKA
For the protein B2, in data set [2], the Km is on record as 0.77 (±0.21) mM, the kcat was 76.4 s⁻¹ and the kcat/Km turned out to be 99000 M⁻¹ s⁻¹.
